Data: the supplement of paper PMC10065799, “High-throughput profiling of sequence recognition by tyrosine kinases and SH2 domains using bacterial peptide display” (eLife, 2023)

How the values were obtained:
[1] = test system: AncSZ; experiment: phosphorylation enrichment, bacterial display (enrichment ratio); higher = better substrate or ligand; peptides without Tyr show the background
[2] = test system: c-Src; experiment: as above
[3] = target: MERTK (UniProt Q12866); experiment: as above
[4] = target: EPHB2 (UniProt P29323); experiment: as above
Chain of EPHB2 (P29323 whole entry, looked up): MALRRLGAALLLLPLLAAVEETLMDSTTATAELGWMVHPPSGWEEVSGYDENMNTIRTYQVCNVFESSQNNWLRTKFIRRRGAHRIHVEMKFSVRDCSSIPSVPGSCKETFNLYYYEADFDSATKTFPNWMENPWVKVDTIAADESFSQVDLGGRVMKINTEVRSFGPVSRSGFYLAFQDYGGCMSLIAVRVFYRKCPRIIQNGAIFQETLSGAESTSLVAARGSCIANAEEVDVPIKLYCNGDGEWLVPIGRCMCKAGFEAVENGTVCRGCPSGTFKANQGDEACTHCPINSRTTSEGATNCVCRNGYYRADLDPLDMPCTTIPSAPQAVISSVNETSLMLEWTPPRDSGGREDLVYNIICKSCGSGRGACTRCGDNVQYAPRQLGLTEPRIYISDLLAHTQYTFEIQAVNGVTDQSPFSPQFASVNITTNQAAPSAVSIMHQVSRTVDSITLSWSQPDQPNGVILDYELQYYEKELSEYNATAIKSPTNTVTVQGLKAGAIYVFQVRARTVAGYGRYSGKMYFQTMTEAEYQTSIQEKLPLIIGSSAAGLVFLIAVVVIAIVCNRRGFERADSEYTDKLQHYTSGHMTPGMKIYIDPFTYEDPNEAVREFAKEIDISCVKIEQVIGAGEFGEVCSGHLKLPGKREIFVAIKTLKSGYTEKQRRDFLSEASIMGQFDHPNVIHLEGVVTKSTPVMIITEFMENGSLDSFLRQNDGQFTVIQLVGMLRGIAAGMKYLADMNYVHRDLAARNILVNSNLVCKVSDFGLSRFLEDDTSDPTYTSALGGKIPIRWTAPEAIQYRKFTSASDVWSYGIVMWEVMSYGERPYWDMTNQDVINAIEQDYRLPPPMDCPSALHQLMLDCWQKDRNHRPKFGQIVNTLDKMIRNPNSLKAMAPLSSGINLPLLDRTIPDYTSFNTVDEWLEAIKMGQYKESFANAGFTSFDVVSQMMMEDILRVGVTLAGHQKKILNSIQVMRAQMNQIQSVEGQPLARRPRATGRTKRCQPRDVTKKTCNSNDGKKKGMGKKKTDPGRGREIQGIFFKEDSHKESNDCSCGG

[5] = target: Hck (UniProt P08631); experiment: as above
Chain of Hck (P08631 whole entry, looked up): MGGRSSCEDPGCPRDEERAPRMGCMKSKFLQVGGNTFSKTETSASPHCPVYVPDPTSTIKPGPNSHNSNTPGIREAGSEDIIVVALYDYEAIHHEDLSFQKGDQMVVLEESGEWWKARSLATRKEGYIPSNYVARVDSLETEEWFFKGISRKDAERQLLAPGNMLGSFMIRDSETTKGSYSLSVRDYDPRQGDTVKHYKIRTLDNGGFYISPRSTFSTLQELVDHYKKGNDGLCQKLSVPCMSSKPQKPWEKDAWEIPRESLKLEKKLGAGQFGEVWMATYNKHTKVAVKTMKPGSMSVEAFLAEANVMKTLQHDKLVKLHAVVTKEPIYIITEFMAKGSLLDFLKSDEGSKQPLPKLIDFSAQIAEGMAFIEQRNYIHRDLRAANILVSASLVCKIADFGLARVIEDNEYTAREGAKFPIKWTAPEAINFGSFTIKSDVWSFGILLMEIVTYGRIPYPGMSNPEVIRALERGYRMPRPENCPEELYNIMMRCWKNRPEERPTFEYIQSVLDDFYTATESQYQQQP

[6] = target: FGFR3 (UniProt P22607); experiment: as above
Chain of FGFR3 (P22607 whole entry, looked up): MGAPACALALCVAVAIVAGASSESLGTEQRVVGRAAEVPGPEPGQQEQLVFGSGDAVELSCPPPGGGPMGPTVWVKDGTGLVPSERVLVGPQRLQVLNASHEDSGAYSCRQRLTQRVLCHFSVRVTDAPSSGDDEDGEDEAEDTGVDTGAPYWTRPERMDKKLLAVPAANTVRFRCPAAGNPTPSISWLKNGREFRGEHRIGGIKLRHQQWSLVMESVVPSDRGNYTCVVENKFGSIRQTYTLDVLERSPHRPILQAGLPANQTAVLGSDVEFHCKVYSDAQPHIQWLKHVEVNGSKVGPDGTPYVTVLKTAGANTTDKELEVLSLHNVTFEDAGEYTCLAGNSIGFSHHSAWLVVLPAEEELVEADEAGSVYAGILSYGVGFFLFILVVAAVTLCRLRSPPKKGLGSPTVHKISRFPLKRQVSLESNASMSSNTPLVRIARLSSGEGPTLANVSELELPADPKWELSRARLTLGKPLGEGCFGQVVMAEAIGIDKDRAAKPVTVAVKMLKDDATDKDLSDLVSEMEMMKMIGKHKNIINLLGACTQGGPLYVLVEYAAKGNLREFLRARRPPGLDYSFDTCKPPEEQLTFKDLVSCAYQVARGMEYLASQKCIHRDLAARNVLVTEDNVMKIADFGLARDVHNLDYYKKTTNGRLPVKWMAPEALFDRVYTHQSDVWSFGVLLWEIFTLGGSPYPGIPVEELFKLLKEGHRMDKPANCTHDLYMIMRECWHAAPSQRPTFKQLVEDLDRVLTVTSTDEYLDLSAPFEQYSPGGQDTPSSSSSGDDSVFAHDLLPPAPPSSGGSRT

[7] = target: Fes (UniProt P07332); experiment: as above
[8] = test system: c-Abl (mouse); experiment: as above
[9] = target: Jak2 (UniProt O60674); experiment: as above
[10] = target: Fyn (UniProt P06241); experiment: as above
Chain of Fyn (P06241 whole entry, looked up): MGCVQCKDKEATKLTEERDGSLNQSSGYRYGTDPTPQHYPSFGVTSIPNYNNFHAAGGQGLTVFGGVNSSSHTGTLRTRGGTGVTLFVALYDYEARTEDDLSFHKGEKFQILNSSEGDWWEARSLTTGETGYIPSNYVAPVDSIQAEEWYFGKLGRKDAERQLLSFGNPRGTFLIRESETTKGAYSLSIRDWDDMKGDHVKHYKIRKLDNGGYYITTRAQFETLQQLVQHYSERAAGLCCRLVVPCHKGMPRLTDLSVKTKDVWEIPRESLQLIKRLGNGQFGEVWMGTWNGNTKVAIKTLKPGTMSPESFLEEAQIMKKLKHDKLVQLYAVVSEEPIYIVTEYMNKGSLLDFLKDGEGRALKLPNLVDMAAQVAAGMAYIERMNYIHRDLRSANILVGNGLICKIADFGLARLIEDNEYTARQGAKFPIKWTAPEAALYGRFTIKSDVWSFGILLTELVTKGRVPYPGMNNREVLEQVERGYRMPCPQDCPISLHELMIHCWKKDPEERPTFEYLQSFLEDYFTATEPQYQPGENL

[11] = target: FGFR1 (UniProt P11362); experiment: as above
Chain of FGFR1 (P11362 whole entry, looked up): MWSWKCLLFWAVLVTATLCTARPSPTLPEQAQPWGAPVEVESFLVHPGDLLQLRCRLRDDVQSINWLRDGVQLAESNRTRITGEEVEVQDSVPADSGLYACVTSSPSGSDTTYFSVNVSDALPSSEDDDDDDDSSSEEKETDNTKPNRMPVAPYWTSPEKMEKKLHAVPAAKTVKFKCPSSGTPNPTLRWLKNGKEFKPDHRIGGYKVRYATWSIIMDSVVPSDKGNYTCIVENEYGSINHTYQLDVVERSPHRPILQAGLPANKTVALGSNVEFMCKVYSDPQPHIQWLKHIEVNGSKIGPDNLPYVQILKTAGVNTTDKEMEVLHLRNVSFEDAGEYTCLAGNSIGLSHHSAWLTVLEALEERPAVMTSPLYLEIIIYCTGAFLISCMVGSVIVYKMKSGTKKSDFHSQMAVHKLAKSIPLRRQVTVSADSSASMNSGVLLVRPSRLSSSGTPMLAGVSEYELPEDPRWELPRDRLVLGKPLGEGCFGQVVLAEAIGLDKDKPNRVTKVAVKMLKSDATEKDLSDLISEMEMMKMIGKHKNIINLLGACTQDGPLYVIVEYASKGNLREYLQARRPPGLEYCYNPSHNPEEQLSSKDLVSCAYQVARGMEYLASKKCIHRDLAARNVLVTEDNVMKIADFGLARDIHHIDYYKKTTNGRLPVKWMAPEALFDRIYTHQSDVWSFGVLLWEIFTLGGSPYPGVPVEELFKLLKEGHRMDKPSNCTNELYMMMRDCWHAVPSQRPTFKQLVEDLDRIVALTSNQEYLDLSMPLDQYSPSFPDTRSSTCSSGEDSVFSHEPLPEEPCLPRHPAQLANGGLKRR

[12] = test system: Fer (mouse); experiment: as above
[13] = target: EPHB1 (UniProt P54762); experiment: as above
Chain of EPHB1 (P54762 whole entry, looked up): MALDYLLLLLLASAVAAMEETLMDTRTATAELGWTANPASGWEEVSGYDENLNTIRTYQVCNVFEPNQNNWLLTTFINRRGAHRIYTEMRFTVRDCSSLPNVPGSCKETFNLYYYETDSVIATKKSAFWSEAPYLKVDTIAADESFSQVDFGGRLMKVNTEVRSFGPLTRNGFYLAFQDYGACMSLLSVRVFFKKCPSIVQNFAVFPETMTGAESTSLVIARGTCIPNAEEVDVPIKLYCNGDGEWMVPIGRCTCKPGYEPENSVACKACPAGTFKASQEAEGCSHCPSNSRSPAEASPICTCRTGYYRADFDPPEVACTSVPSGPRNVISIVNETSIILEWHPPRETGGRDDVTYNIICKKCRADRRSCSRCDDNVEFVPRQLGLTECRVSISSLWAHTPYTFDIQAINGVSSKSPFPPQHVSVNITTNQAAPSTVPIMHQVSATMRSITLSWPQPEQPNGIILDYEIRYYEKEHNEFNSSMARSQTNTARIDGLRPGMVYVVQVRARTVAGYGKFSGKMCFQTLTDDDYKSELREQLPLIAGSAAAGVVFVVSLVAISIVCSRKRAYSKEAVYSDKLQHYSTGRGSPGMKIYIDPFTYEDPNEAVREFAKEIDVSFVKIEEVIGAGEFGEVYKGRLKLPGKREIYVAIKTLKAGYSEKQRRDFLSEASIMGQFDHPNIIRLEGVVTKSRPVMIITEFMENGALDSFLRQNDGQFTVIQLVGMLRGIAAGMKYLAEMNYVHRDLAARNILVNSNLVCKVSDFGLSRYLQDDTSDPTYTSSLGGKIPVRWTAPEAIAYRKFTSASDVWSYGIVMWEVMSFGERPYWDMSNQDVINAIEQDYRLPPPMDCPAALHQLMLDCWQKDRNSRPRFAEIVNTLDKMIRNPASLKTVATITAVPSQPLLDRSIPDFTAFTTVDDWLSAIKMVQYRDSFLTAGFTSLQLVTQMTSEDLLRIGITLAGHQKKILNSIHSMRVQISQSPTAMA

[14] = target: SHP2-C SH2; experiment: SH2 binding enrichment of the phosphorylated peptide, bacterial display (enrichment ratio); higher = better substrate or ligand; peptides without Tyr show the background
[15] = target: c-Src SH2; experiment: as above
[16] = target: Grb2 SH2 (UniProt P62993); experiment: as above
Chain of Grb2 SH2 (P62993 whole entry, looked up, the tested form may be a part): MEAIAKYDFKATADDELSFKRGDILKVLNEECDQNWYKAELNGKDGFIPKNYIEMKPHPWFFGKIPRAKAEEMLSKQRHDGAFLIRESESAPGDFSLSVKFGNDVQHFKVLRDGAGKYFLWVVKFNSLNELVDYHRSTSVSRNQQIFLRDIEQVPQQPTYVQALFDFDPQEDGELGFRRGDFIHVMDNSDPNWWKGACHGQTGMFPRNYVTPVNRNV
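For SH2 binding enrichment of the phosphorylated peptide, bacterial display in this document: peptide library displayed on the E. coli surface as eCPX fusions, selected cells deep-sequenced, score is each peptide's frequency after selection divided by its frequency in the input.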
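For phosphorylation enrichment, bacterial display in this document: 11-residue human phosphosite peptides and single-mutation variants displayed on the E. coli surface, counted by deep sequencing, each peptide's frequency after selection divided by its frequency in the unselected input library; frequency after pTyr selection over input frequency; kinase dosed for 20-30% of maximal phosphorylation in three min.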

Sequence	phosphorylation enrichment [1]	phosphorylation enrichment [2]	phosphorylation enrichment [3]	phosphorylation enrichment [4]	phosphorylation enrichment [5]	phosphorylation enrichment [6]	phosphorylation enrichment [7]	phosphorylation enrichment [8]	phosphorylation enrichment [9]	phosphorylation enrichment [10]	phosphorylation enrichment [11]	phosphorylation enrichment [12]	phosphorylation enrichment [13]	SH2 binding enrichment [14]	SH2 binding enrichment [15]	SH2 binding enrichment [16]
KQMEQYMSFHK [HCN1_Y417_V414M]	0.5	1.76	0.419	0.369	4.18	0.547	0.573	0.416	0.516	1.47	0.408	0.313	0.393	0.429	0.576	0.822
KQRKEYMHRWQ [IQGAP2_Y710_R714W]	0.846	0.584	0.519	0.746	0.613	1.16	1.02	1.05	1.68	0.523	0.577	0.617	0.652	2.21	2.02	2.29
KRAIGHYSATS [FAM120A_Y327_Y327H]	0.459	0.434	0.355	0.286	0.312	0.423	0.498	0.474	0.439	0.346	0.319	0.356	0.305	0.564	0.778	1.12
KRAIGYYSATS [FAM120A_Y327]	0.477	0.359	0.55	0.387	0.406	0.389	0.472	0.437	0.439	0.456	0.412	0.383	0.366	0.821	1.41	0.864
KRISCYEARFQ [PFKFB3_Y194_S197R_YF]	0.669	0.497	0.395	0.476	0.425	0.496	0.845	0.728	0.647	0.382	0.344	0.399	0.398	0.941	0.64	0.999
KRISCYEARYQ [PFKFB3_Y194_S197R]	0.708	0.365	0.357	0.415	0.388	0.523	0.746	0.526	0.735	0.479	0.392	0.4	0.466	0.682	0.591	0.915
KRLDGYVLEGW [IGSF9_Y656_R661W]	0.712	0.418	0.381	0.484	0.453	0.511	0.835	0.532	0.651	0.484	0.542	0.506	0.48	0.819	2.36	0.844
KSAAIYNPVIF [RHO_Y301_YF]	0.757	4.71	4.6	0.519	8.01	0.557	0.939	1.11	0.634	5.56	0.567	16.1	0.559	0.75	0.589	0.721
KSIQLYDTPYE [SHB_Y297_G293S]	1.29	0.986	4.79	15.8	1.76	0.643	1.07	1.03	0.921	0.827	0.521	3.02	11.6	0.626	4.1	1.02
KTGDFYDLFGG [PTPN11_Y63_N58K_YF]	0.956	2.65	2.74	0.463	2.04	0.6	0.879	0.627	0.781	3.14	0.523	0.716	0.577	0.781	0.628	0.93
KTKLGYSPLHQ [ANK1_Y735]	0.454	0.369	0.399	0.326	0.322	0.385	0.48	0.691	0.397	0.373	0.31	0.354	0.296	1.05	0.849	1.2
KWHREYNSKYV [RICTOR_Y835]	0.461	0.294	0.339	0.401	0.371	0.42	0.414	0.461	0.513	0.398	0.37	0.32	0.348	1.31	1.14	1.47
KWRGQYDVAIK [BTK_Y425]	0.676	0.567	0.463	0.642	0.479	0.546	0.742	0.802	0.543	0.491	0.527	0.429	0.399	0.935	1.21	1.34
KYVVVYFREID [IL17RB_Y447]	1.61	0.626	0.471	0.545	0.499	0.867	1.66	1.01	1.51	0.486	0.513	0.591	0.578	2.88	1.37	1.62
LADKPYTFEDF [FXN_Y118_YF]	2.9	3.9	1.39	1.86	1.26	2	2.52	0.738	0.988	7.15	2.21	1.96	1.43	0.954	0.708	1.1
LADKPYTFEDY [FXN_Y118]	2.03	6.91	2.31	1.04	0.945	1.14	1.74	1.55	1.92	3.63	0.955	0.832	0.736	0.588	0.446	0.758
LARDMHDKEYY [MET_Y1230_Y1230H]	0.763	0.425	0.404	0.507	0.385	0.589	0.678	0.395	0.628	0.445	0.46	0.426	0.469	0.962	0.395	0.625

Sequence	phosphorylation enrichment [1]	phosphorylation enrichment [2]	phosphorylation enrichment [3]	phosphorylation enrichment [4]	phosphorylation enrichment [5]	phosphorylation enrichment [6]	phosphorylation enrichment [7]	phosphorylation enrichment [8]	phosphorylation enrichment [9]	phosphorylation enrichment [10]	phosphorylation enrichment [11]	phosphorylation enrichment [12]	phosphorylation enrichment [13]	SH2 binding enrichment [14]	SH2 binding enrichment [15]	SH2 binding enrichment [16]
LDFPEYNGVDR [CASQ1_Y43_D44N]	2.84	2.17	2.17	1.04	1.16	1.61	3.29	1.95	3.51	1.43	0.986	1	1.09	0.646	0.975	0.541
LENSTYQFIHV [CRB1_Y760_R764H_YF]	1.77	4.21	10	2.92	8.87	4.82	2.22	1.56	1.19	3.24	7.91	24.8	9.73	0.652	0.456	0.94
LEQQKYTVTVD [IKBKB_Y199]	1.21	0.593	0.71	0.746	0.726	1.06	1.98	0.634	0.954	0.706	0.647	0.674	0.566	0.616	0.567	0.804
LERYIYNREEF [HLA-DPB1_Y59]	1.05	2.63	0.629	1.22	1.56	1.18	1.24	0.757	0.874	1.26	0.564	0.587	0.756	0.698	0.634	0.956
LFFFSYLLKNH [PTEN_Y180_V175L_YF]	1.39	1	0.584	0.976	0.705	0.671	1.98	1.66	2.28	0.346	0.577	0.672	0.443	0.696	0.769	0.901
LFLASYCIGGG [UBD_Y161_C160S]	1.22	0.495	0.537	0.788	0.533	1.04	1.63	0.886	1.21	0.416	1.06	0.671	0.655	0.815	0.521	0.847
LFNQDYPIHSV [GATM_Y227_YF]	2.31	0.81	0.796	0.787	1.07	2	2.09	0.984	0.707	1.01	3.19	1.24	1.46	0.725	0.432	1.21
LHRAHYDLRHT [AHSG_Y314]	0.621	0.556	0.418	0.78	0.876	1.1	1.11	0.908	0.725	0.617	0.707	0.8	0.668	1.6	1.19	1.83
LHSEAYLKFNE [PBRM1_Y1610_I1614N_YF]	1.53	0.707	0.737	0.651	0.488	0.945	1.31	0.922	1.06	1.05	0.72	0.493	0.438	1	0.539	1.34
LIDGYYRLTAD [JAK2_Y373]	2.46	0.899	0.961	2.08	1.87	5.24	2.59	1	10.4	1.71	11.5	1.54	1.88	9.03	4.65	0.72
LIDSSYLTPTA [GREB1L_Y1063_R1066P]	0.919	0.421	0.511	0.498	0.684	0.825	1.15	0.871	0.8	0.409	0.596	0.423	0.569	0.595	0.717	1.2
LIFTNYEVGKD [GSTP1_Y112_A114V_YF]	2.14	0.825	0.983	1.78	1.1	1.46	2.21	1.3	1.94	1.18	1.17	1.17	1.58	0.784	0.739	0.887
LIGRGYDDPEV [HSPA9_Y128_R127G]	1.54	0.567	0.602	0.802	0.931	0.894	1.88	0.756	0.868	0.975	0.828	0.669	0.695	0.635	2.39	0.772
LIGTPYWMAPE [PAK5_Y608_V604I]	1.74	2.6	1.32	1	1	3.65	1.51	0.987	1.17	0.825	4.64	0.917	1.4	3.03	0.882	1.23
LIHLHYIRKDF [BBS4_Y43_YF]	1.51	0.527	0.471	1.01	0.637	1.22	1.18	0.612	0.787	0.871	0.937	0.984	1.17	2.75	1.6	2.06
LIHTKCPQLLP [AHCY_Y143_Y143C]	0.693	0.433	0.476	0.607	0.509	0.631	0.936	0.604	0.654	0.438	0.509	0.46	0.516	0.762	0.714	0.941
